Measurements published in publication PMC7672075.
Changes are numbered by the printed parent chain. Names may count otherwise. Where no end group is shown, it is not given here. [ ]: non-standard residue; d: D form. pS = N[C@@H](COP(=O)(O)O)C(=O)O

B1: FLAG-tagged WT MCPH1 (human) (natural protein)
chain: MAAPILKDVVAYVEVWSSNGTENYSKTFTTQLVDMGAKVSKTFNKQVTHVIFKDGYQSTWDKAQKRGVKLVSVLWVEKCRTAGAHIDESLFPAANMNEHLSSLIKKKRKCMQPKDFNFKTPENDKRFQKKFEKMAKELQRQKTNLDDDVPILLFESNGSLIYTPTIEINSRHHSAMEKRLQEMKEKRENLSPTSSQMIQQSHDNPSNSLCEAPLNISRDTLCSDEYFAGGLHSSFDDLCGNSGCGNQERKLEGSINDIKSDVCISSLVLKANNIHSSPSFTHLDKSSPQKFLSNLSKEEINLQRNIAGKVVTPDQKQAAGMSQETFEEKYRLSPTLSSTKGHLLIHSRPRSSSVKRKRVSHGSHSPPKEKCKRKRSTRRSIMPRLQLCRSEDRLQHVAGPALEALSCGESSYDDYFSPDNLKERYSENLPPESQLPSSPAQLSCRSLSKKERTSIFEMSDFSCVGKKTRTVDITNFTAKTISSPRKTGNGEGRATSSCVTSAPEEALRCCRQAGKEDACPEGNGFSYTIEDPALPKGHDDDLTPLEGSLEEMKEAVGLKSTQNKGTTSKISNSSEGEAQSEHEPCFIVDCNMETSTEEKENLPGGYSGSVKNRPTRHDVLDDSCDGFKDLIKPHEELKKSGRGKKPTRTLVMTSMPSEKQNVVIQVVDKLKGFSIAPDVCETTTHVLSGKPLRTLNVLLGIARGCWVLSYDWVLWSLELGHWISEEPFELSHHFPAAPLCRSECHLSAGPYRGTLFADQPAMFVSPASSPPVAKLCELVHLCGGRVSQVPRQASIVIGPYSGKKKATVKYLSEKWVLDSITQHKVCAPENYLLSQ
B2: FLAG-MCPH1^S333A (natural protein)
chain: B1 chain with S333A

The binders below were run against TRF2, endogenous (U2OS) (human (endogenous in U2OS)) (UniProt Q15554) (assay: not given).
UniProt Q15554, sequence (Q15554 whole entry): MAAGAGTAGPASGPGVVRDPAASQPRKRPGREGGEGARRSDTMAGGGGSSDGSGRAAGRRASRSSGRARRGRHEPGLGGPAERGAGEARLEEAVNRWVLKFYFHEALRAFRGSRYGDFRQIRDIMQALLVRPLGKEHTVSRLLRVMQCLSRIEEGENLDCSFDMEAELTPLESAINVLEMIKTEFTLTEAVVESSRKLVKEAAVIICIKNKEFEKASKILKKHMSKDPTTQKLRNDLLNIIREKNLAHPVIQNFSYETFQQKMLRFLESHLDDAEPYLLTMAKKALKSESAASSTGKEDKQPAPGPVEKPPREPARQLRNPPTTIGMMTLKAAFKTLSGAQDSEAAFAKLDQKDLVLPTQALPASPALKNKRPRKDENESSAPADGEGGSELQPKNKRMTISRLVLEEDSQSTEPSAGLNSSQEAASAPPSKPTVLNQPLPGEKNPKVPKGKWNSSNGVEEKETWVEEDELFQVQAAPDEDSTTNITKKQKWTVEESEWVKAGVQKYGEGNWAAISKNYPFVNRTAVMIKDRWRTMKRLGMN

Binder | percentage of HeLa cells with >5 FLAG-MCPH1 foci at telomeres (immunostaining and telomere PNA-FISH), functional telomeres
B1 | 11 % of cells
B2 | 48 % of cells

The binders below were run against TRF2^TRFH (TRF Homology domain of human TRF2, residues 42–245) (human) (assay: ITC; MCPH1^TBM peptides at 1.0 mM in the syringe titrated into TRF2^TRFH at 0.1 mM in the sample cell; 20 °C; 25 mM Tris-HCl pH 8.0, 150 mM NaCl).

Binder | Kd
SQETFEEKYRLSPTLSSTKGH [MCPH1^TBM peptide, wild type, synthetic] | 0.24 µM
SQETFEEKYRLAPTLSSTKGH [MCPH1^TBM peptide S333A, synthetic] | 0.16 µM
SQETFEEKYRLDPTLSSTKGH [MCPH1^TBM peptide S333D, synthetic] | 21 µM
SQETFEEKYRLEPTLSSTKGH [MCPH1^TBM peptide S333E, synthetic] | 14 µM
SQETFEEKYRL[pS]PTLSSTKGH (also: phosphoserine at S333, position in peptide not given here) [MCPH1^TBM peptide phosphorylated at S333, synthetic] | 79 µM
SQETFEEKYRLSATLSSTKGH [MCPH1^TBM peptide P334A, synthetic] | 24 µM
